In the supplement of paper PMC9732359:
± gives the uncertainty stated by the source.

Assay: protein stability index of a GFP-peptide fusion (yeast GPS) (PSI 1-4); higher = more stable; sorted into four equal gates, so the index is relative within each strain
Conditions: san1∆
Procedure, shortened: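 Plasmids isolated from each sorting gate were PCR-amplified and Illumina-sequenced, and barcodes assigned the reads to strains. The gates, four of equal size, were set by GFP/Cherry fluorescence ratio on mid-log cultures in leucine-free medium. These cultures were yeast carrying a pooled library of tiled 17-residue yeast protein peptides fused downstream of GFP on a plasmid that also expresses Cherry. The protein stability index is the sum of every gate's read frequency times its gate number.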

Point of comparison: DWGQALRLLLLLIEFPY [YJR042W/NUP85], protein stability index 1.39 ± 0.067. Against it:
- DQNEFLLERTREIHNEA [FAS2] — higher, 2.99 ± 0.063
- DQRDELLEQKKSIINSQ [ITC1] — higher, 3.11 ± 0.062
- DQSIASGNTNGAGSAFG [YOR098C/NUP1] — higher, 2.44 ± 0.079
- DQVLVKGGEQISQLYSD [YJL041W/NSP1] — higher, 3.2 ± 0.061
- DRELNEVINQMERLDGD [SMC3] — higher, 3.2 ± 0.08
- DRLILDLKLPPMDAYLK [SNU114] — higher, 3.01 ± 0.063
- DRLSLQDRQQLLPLVVS [ECM29] — higher, 1.64 ± 0.08
- DRNLTEFDSTDTSLCIN [RRI1] — higher, 2.59 ± 0.13
- DRREKAERTMSKKETKL [SMC2] — higher, 3.19 ± 0.12
- DSFSGAKIYPGRGTLFV [RPL24A] — higher, 2.78 ± 0.06
- DSIYTKPVKVALIFIFF [YJL039C/NUP192] — within error, 1.5 ± 0.058
- DSKGSLYSVKFAPAHLG [YGL100W/SEH1] — higher, 2.59 ± 0.1
- DSPFSLICQNNLNAFVD [SRP72] — higher, 2.85 ± 0.05
- DSSAHFKGALTIKILPE [YMR129W/POM152] — higher, 2.37 ± 0.058
- DSVATVIEVIETKWDDA [YJR042W/NUP85] — higher, 2.16 ± 0.17
- DSVEFIFQAKRNSNPEN [RPN10] — higher, 3.2 ± 0.12
- DSVLQLASFEKTTDHLF [RPO31] — higher, 2.83 ± 0.06
- DTEMKMKSLLTELSNKE [YIL149C/MLP2] — higher, 3.21 ± 0.045
- DTFELIKTFLVDLTSSN [YDL116W/NUP84] — higher, 2.55 ± 0.08
- DTGTLDTKSVVGLVMFS [RPN2] — higher, 2.91 ± 0.075
- DTKKVKESPANDQASNE [YIL149C/MLP2] — higher, 3.12 ± 0.2
- DTSKALLNVSVNITKFS [SKI6] — higher, 2.72 ± 0.073
- DTTVNDCLDKLLNDECT [SNF2] — higher, 3.59 ± 0.075
- DVAIENNTLSRYADAGN [RRP43] — higher, 3.35 ± 0.035
- DVAYLLKSESATSQYLK [YGL172W/NUP49] — higher, 2.94 ± 0.1
- DVFDTLATYCPRVQGFY [GRR1] — higher, 2.36 ± 0.078
- DVHLLESKVYHKLRNLA [RPN6] — higher, 2.17 ± 0.14
- DVILDYQTKKFYDYIKE [REC8] — higher, 2.55 ± 0.071
- DVKLLHSQFMKDLKDDS [YJL039C/NUP192] — higher, 2.98 ± 0.077
- DVKVSISHDDLQAVAVA [FAS2] — higher, 1.61 ± 0.065
- DVNALKFNNTQRESQIG [SNF12] — higher, 2.68 ± 0.077
- DVNIVNRRLVYSRILKS [YCG1] — within error, 1.38 ± 0.17
- DVSVKMGNTKVHCRISC [RRP45] — higher, 2.17 ± 0.061
- DVVAHRQLAGAIGYEPL [DIS3] — higher, 1.88 ± 0.15
- DVYASKVRLNASEREEL [PRP8] — higher, 2.39 ± 0.072
- DWQKEDGIFSSKTDNIE [YMR153W/NUP53] — higher, 3.22 ± 0.15
- DYDVSKKASEISVSSRS [SRP14] — higher, 3.2 ± 0.15
- DYINELSNSNRFELHGD [REC8] — higher, 3 ± 0.092
- DYSINSRYEPKVFDCGD [PRE7] — higher, 2.9 ± 0.068
- EAAAAEEGEEEEVKEEV [RPS0B] — higher, 3.19 ± 0.069
- EAELSSTKVENSAIIQN [YIL149C/MLP2] — higher, 2.98 ± 0.056
- EAGASAELDDCRGVSEN [RPO21] — higher, 3.26 ± 0.08
- EAGLQLCRQGHNMLNLL [PRP8] — higher, 2.07 ± 0.14
- EAHNKALNQFKRKLLEH [RPT4] — higher, 3.46 ± 0.12
- EAIRDPKNSSSPVQIAF [SSN8] — higher, 1.92 ± 0.22
- EALNLLKFFLVDENETV [LIN1] — within error, 1.4 ± 0.12
- EALVERRRAFKRSQKKH [RPB4] — higher, 3.22 ± 0.062
- EAMLRENIEVILSNGRM [SNF12] — higher, 2.86 ± 0.046
- EAMMLKEEGLQQFNLHE [MED1] — higher, 3.17 ± 0.12
- EAVDDVFQAKMMDMLKQ [RPN11] — higher, 2.02 ± 0.061
- ECPAIPIFNYIFTEKIY [YJL039C/NUP192] — within error, 1.43 ± 0.071
- EDARRNPNPSSQRAQVV [RPC37] — higher, 3.02 ± 0.064
- EDCDLVIMALMLMSKIG [POP5] — higher, 1.81 ± 0.069
- EDDNNNVEKPSSKPAFN [YLR335W/NUP2] — higher, 3.14 ± 0.049
- EDGPRPFKVFLDIGLQR [RPL5] — higher, 3.06 ± 0.052
- EDGTFSVLYPDELEDDT [RRP43] — higher, 3.16 ± 0.061
- EDHVEDHRKRKKSKIQL [LIN1] — higher, 3.12 ± 0.059
- EDISKATHLPKDNVEHL [RPN9] — higher, 3.12 ± 0.091
- EDKQNIEINEDNSQDDQ [RRI2] — higher, 3.23 ± 0.039
- EDNAGVIANPKGEMKGS [RPL23A] — higher, 2.28 ± 0.13
- EDNNDAVNSIMALKFVS [ECM29] — higher, 3.03 ± 0.079
- EDNYNPKMQWSLQDNSA [RPN4] — higher, 3.22 ± 0.087
- EDVLSSFYRVEKIKKIN [SSN2] — within error, 1.24 ± 0.28
- EDYELSPQAVSSFVRQE [PRE1] — higher, 2.31 ± 0.093
- EEAKSVLPAATKKKSKF [ARP9] — higher, 2.04 ± 0.06
- EECGRTIHRSFTICLND [CSN12] — higher, 2.84 ± 0.055
- EEEESILIAMQPEDLEP [RPB2] — higher, 2.33 ± 0.13
- EEELFEVTKEEDIIANY [RRP43] — higher, 3.19 ± 0.11
- EEELWNSPSKGNSERPS [YIL149C/MLP2] — higher, 3.24 ± 0.061
- EEERRKKRESGVEEEEE [SNF2] — higher, 3.38 ± 0.11
- EEIRSQIDHFKSMLSKP [SWI3] — higher, 2.67 ± 0.053
- EEIVVVASADYESQTFS [PRP8] — higher, 3.24 ± 0.054
- EEKEKEQSKEVGDVVGG [BRN1] — higher, 3.29 ± 0.067
- EEKKKEHEEKEKERETN [RPN2] — higher, 3.38 ± 0.15
- EEKSNEVKTPKIPLFTF [SIR4] — higher, 2.57 ± 0.048
- EEKVIERAAQKLRLDQL [ISW2] — higher, 2.87 ± 0.12
- EERMGQIENLNEVCLEK [SMC4] — higher, 2.47 ± 0.27
- EESLTVLNCLRTMYFIL [YJR042W/NUP85] — within error, 1.38 ± 0.098
- EEVEDQINPTRETNDDI [SNF2] — within error, 1.45 ± 0.11
- EEVQQAQTEIKLFNKWS [RPS5] — higher, 3.25 ± 0.076
- EEYARRLAEFKRRKLDL [SMC4] — higher, 2.72 ± 0.1
- EFEIPVSFNGFKLPKKF [BRR2] — higher, 2.61 ± 0.12
- EFENKFQNSYKPALKVS [YMR129W/POM152] — higher, 3.04 ± 0.2
- EFETPTFLVSNDDEVSQ [RPN14] — higher, 2.72 ± 0.079
- EFFVQVLTHESLHRQQQ [DLS1] — higher, 2.81 ± 0.12
- EFKIEQNNEQNPIDPFN [YDL116W/NUP84] — higher, 3.05 ± 0.067
- EFNFTNLQAKPLVGKPK [YAR002W/NUP60] — higher, 2.27 ± 0.077
- EFNSIDRVIFRVPIRSE [PRP8] — higher, 3.21 ± 0.13
- EFQPSGNVTELYGTAIG [PRE5] — higher, 1.98 ± 0.067
- EFSEHTFVERLPNETIN [DIS3] — higher, 3.36 ± 0.11
- EGHLAEIRAKEYKTSSD [SRB2] — higher, 3.18 ± 0.051
- EGLIRLDNLTEDPNSAA [DIS3] — higher, 3.229 ± 0.032
- EGQENNYNSTSRSTEKK [SIR4] — higher, 2.65 ± 0.17
- EGYQNDINTIKLQLSFV [SRP72] — higher, 2.1 ± 0.26
- EHAKWGPAAAIEFEYDP [RPB3] — higher, 2.36 ± 0.07
- EHIKQDYVASLNELYQT [NSL1] — higher, 2.84 ± 0.047
- EHKPVSPDKIGTFTADY [SSN2] — higher, 2.9 ± 0.058
- EIEELKSSIQNLNELES [SMC3] — higher, 2.07 ± 0.28
- EIEQVCKQVHDKLTSIQ [MED7] — higher, 2.92 ± 0.06
- EIHPITFPPEVLARISP [RRP43] — higher, 2.4 ± 0.049
- EIIPLQDYYIIGANIYQ [MED6] — higher, 3.16 ± 0.04
- EILYYQIKTLPEQYSDI [AAR2] — higher, 2.77 ± 0.067
